To fix the notation:
B1: CPEB3 Ribozyme (parent)
chain: GGGGGCCACAGCAGAAGCGUUCACGUCGCGGCCCCUGUCAGAUUCUGGUGAAUCUGCGAAUUCUGCUGU

The data set covers variants of B1. Briefly: self-cleavage, relative activity (ratio to wild type); higher = more cleavage; co-transcriptional.
Regarding C32G C63A, the self-cleavage is 0.3.
As for C32A G50A, the self-cleavage is 0.693.
Next, C32A G50C: 0.716.
In the case of C32G C57G, the self-cleavage worked out at 0.263.
Next, C32U G37U: 0.292; C32A C54G: 0.333; C32A C54U: 0.803.
Consider C32A C54A, for which the self-cleavage turned out to be 0.328.
Next, C32U A52G: 0.967; C32U A52U: 0.987; C33G G58U: 0.821.
Next, C33G G58C: 0.703.
With C32U U49A, the self-cleavage worked out at 1.01.
For the variant C33G C39U, the self-cleavage was determined as 0.337.
For C33G C39A, the self-cleavage was determined as 0.387.
C33G C39G: the self-cleavage stood at 0.513.
Under C32U G41A stands 0.845.
As for C32A C57U, the self-cleavage came to 0.25.
Next, C32A C57G: 0.27; C33A C63G: 0.513.
C33G C63G: the self-cleavage came out at 0.384.
Under C33G C63U stands 0.632; under C32A G68U, 1.01.
Under C32A G68A stands 0.994.
Next, C33A A51C: 0.366; C33A A51U: 0.46; C33A A51G: 0.7.
For C32A U61G, the self-cleavage is 0.421.
In the case of C32A U61C, the self-cleavage came to 0.365.
Next, C32A U61A: 0.406.
As to C33G U36G, the self-cleavage worked out at 0.25.
For C33G U36A, the self-cleavage amounted to 0.13.
On to C32A A60C, for which the self-cleavage amounted to 0.27.
Turning to C32A A60U, the self-cleavage is 0.257.
With C33G A60G, the self-cleavage stood at 0.372.
C33G A60C: the self-cleavage was 0.415.
As to C33G A60U, the self-cleavage amounted to 0.328.
As for C32A A52U, the self-cleavage came to 0.645.
Regarding C32A A52C, the self-cleavage was determined as 0.374.
Under C33G G65C stands 0.424; under C33G G65U, 0.376.
On to C33G G65A, for which the self-cleavage stood at 0.511.
Under C33A G68U stands 0.904.
Regarding C33A G68A, the self-cleavage stood at 0.951.
As for C33G U43G, the self-cleavage is 0.377.
With C32G G47C, the self-cleavage worked out at 0.683.
As to C32G G47A, the self-cleavage was found to be 0.673.
For the variant C32U U53G, the self-cleavage was determined as 0.967.
In the case of C32U U53A, the self-cleavage was determined as 0.982.
As for C33A A60G, the self-cleavage came to 0.378.
On to C33A A60U, for which the self-cleavage stood at 0.38.
On to C33A U64C, for which the self-cleavage was found to be 0.798.
Under C33A U64G stands 0.672; under C33A U64A, 0.847.
Regarding C32A C34U, the self-cleavage worked out at 0.362.
For the variant C32A C34A, the self-cleavage was 0.229.
Take C32G C34U: the self-cleavage was 0.363.
Regarding C32A U46C, the self-cleavage came out at 0.776.
With C32A U46G, the self-cleavage was found to be 0.729.
For C32A U46A, the self-cleavage stood at 0.574.
Turning to C33A G41U, the self-cleavage is 0.562.
C33A G41A: the self-cleavage turned out to be 0.349.
Turning to C32U C35G, the self-cleavage was 0.349.
On to C32A C39U, for which the self-cleavage is 0.388.
Take C32A C39A: the self-cleavage turned out to be 0.434.
On to C32U G68A, for which the self-cleavage came to 0.977.
C32U G68C: the self-cleavage worked out at 1.02.
Regarding C32U G68U, the self-cleavage worked out at 1.02.
For C33G U44G, the self-cleavage stood at 0.333.
For the variant C33G U44C, the self-cleavage is 0.576.
For C33G U46C, the self-cleavage was 0.783.
C33G U46G: the self-cleavage came out at 0.604.
Under C32A U44G stands 0.469.
Consider C32A U44A, for which the self-cleavage was 0.357.
Next, C32G G58A: 0.44.
As to C32G U49C, the self-cleavage was 0.543.
As for C32G U49A, the self-cleavage was 0.658.
On to C32U C33U, for which the self-cleavage was 0.861.
With C32U C33A, the self-cleavage stood at 0.593.
Under C33G U38A stands 0.582.
Consider C33A C35U, for which the self-cleavage stood at 0.442.
Regarding C33A C35G, the self-cleavage is 0.204.
As to C33A C35A, the self-cleavage came out at 0.151.
Under C32U C39U stands 0.937; under C32U U36G, 0.297.
Regarding C33A U67G, the self-cleavage was 1.01.
Next, C33A U67A: 0.977; C33A U62A: 0.566; C33G G41U: 0.268.
As to C32G U44G, the self-cleavage was found to be 0.426.
As for C32G U44A, the self-cleavage was 0.385.
Take C33G C66A: the self-cleavage is 0.526.
C33G C66U: the self-cleavage worked out at 0.649.
With C32G C39U, the self-cleavage is 0.332.
As for C32G C33A, the self-cleavage was 0.309.
On to C32G C33U, for which the self-cleavage worked out at 0.287.
Next, C32G C33G: 0.179.
With C32A U38G, the self-cleavage was determined as 0.271.
In the case of C32A U38C, the self-cleavage was 0.504.
As to C32G U53A, the self-cleavage is 0.266.
Next, C33A U44G: 0.374; C33A U44A: 0.313; C33A U44C: 0.656.
For C32G U38G, the self-cleavage came out at 0.207.
As to C32G U38C, the self-cleavage was found to be 0.235.
Take C32G U38A: the self-cleavage was found to be 0.443.
On to C33A U53G, for which the self-cleavage came to 0.346.
As to C33A U53C, the self-cleavage was 0.48.
Turning to C33A U53A, the self-cleavage is 0.392.
C32U G56A: the self-cleavage was 0.94.
Consider C32U G56U, for which the self-cleavage amounted to 0.971.
On to C32A A42C, for which the self-cleavage stood at 0.342.
With C32A A42U, the self-cleavage is 0.504.
Under C33A U55C stands 0.438; under C33A U55G, 0.319.
Next, C33A U55A: 0.486.
Regarding C32A U62C, the self-cleavage amounted to 0.339.
Turning to C32U U55A, the self-cleavage is 0.989.
With C32U U55G, the self-cleavage stood at 0.896.
As for C33G C35G, the self-cleavage was 0.318.
For C33G C35A, the self-cleavage was 0.304.
As to C32G G37A, the self-cleavage worked out at 0.195.
For C32G G37U, the self-cleavage worked out at 0.149.
Next, C32G G37C: 0.184; C32A C66U: 0.903.
C32A C66A: the self-cleavage was determined as 0.698.
With C33A G47C, the self-cleavage worked out at 0.946.
For the variant C33A G47A, the self-cleavage came out at 0.925.
Take C32U U61G: the self-cleavage came to 0.829.
As to C32U U61C, the self-cleavage came out at 0.856.
As to C32A G56A, the self-cleavage amounted to 0.674.
C32A G56U: the self-cleavage is 0.683.
Next, C33G U49C: 0.645; C33G U49A: 0.748.
Take C32U A42C: the self-cleavage was 0.961.
Turning to C32U A42U, the self-cleavage stood at 0.933.
Under C32U A42G stands 0.914.
In the case of C32U U67A, the self-cleavage came to 0.987.
Regarding C33A G48C, the self-cleavage turned out to be 0.898.
Next, C33A G48U: 0.929; C32U U62G: 0.864.
Take C33G A40C: the self-cleavage came to 0.324.
In the case of C33G A40U, the self-cleavage was determined as 0.273.
Under C33A U49G stands 0.981.
Under C33A U49A stands 0.965; under C33A U49C, 0.926.
In the case of C32A G37C, the self-cleavage worked out at 0.336.
For the variant C32U C63A, the self-cleavage is 0.886.
As for C32U C63U, the self-cleavage came to 0.956.
For the variant C32U G50A, the self-cleavage worked out at 0.995.
For C32U G50U, the self-cleavage came to 0.978.
Under C33A C66G stands 0.665; under C33A C66A, 0.76.
For C33A C66U, the self-cleavage is 0.901.
On to C32U U38C, for which the self-cleavage was 0.955.
In the case of C32G U36G, the self-cleavage came to 0.191.
With C32G U55G, the self-cleavage was found to be 0.218.
Under C32G U55C stands 0.258; under C33A U61C, 0.45.
Next, C33A U61A: 0.599; C33G G56C: 0.326.
As for C32G C54G, the self-cleavage came out at 0.335.
As to C32G C54A, the self-cleavage is 0.356.
Next, C33A G65C: 0.529.
Take C32G G41C: the self-cleavage was 0.267.
Next, C32G G41A: 0.35; C33G A52G: 0.663.
